According to patent US20200079833A1 (AstraZeneca / MedImmune, published 2020):
Starred links: 1 amine or outer side, 2 acyl side, 3 side chain; linkers in the order of their positions; H or OH if unused. Non-standard residues stand in square brackets, D forms with d. Groups on a side chain read outwards from the residue. Primed or numbered codes have the meaning given here. No end group written: not given here. *: point of attachment. γGlu = O=C(O)[C@H](CCC(=O)[*:2])N[*:1]; Stearoyl = CCCCCCCCCCCCCCCCCC(=O)*; Palmitoyl = CCCCCCCCCCCCCCCC(=O)*; αMeF = C[C@](N)(Cc1ccccc1)C(=O)O; αMeK = C[C@](N)(CCCCN)C(=O)O; αMeS = C[C@](N)(CO)C(=O)O; PEG2′ = not defined here; Aib = CC(C)(N)C(=O)O

T1: glucose-dependent insulinotropic peptide (gastric inhibitory polypeptide) receptor (GIPR) (human, UniProt P48546 22-466)
T1 sequence (looked up): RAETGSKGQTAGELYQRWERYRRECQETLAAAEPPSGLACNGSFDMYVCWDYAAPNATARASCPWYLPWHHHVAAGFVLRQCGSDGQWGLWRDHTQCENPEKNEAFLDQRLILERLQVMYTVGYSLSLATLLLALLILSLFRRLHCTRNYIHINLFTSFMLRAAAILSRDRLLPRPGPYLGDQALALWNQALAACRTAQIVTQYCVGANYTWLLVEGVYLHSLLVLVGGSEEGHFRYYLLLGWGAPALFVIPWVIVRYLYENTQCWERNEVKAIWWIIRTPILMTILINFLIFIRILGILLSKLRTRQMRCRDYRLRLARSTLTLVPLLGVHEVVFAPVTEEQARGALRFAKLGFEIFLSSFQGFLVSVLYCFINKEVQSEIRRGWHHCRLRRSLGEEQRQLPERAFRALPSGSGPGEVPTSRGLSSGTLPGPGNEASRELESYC


Columns and labels:
Test in all cases: cell-based or functional assay
[1] = molecular target: T1, glucose-dependent insulinotropic …
[2] = molecular target: GLP-1 receptor (GLP-1R) (human, UniProt P43220 24-463)
[3] = molecular target: glucagon receptor (GCGR) (human, UniProt P47871 26-477)
Sequence of glucagon receptor (GCGR) (P47871 26-477): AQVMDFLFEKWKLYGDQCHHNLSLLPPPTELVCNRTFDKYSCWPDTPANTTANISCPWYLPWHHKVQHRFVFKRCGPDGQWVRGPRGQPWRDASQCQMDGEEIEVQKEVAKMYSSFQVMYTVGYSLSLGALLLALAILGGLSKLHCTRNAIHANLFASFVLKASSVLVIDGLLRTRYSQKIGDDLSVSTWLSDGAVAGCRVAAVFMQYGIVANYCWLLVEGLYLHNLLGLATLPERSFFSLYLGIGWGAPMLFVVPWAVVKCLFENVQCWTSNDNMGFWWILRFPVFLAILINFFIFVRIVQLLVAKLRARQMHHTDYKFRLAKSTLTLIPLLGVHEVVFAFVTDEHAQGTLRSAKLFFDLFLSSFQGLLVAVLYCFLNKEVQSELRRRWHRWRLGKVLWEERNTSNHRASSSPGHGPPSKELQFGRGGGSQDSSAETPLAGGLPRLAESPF

| Binder | cAMP Primary assay EC50 GIP-R [1] | cAMP Primary assay EC50 GIP-R (2nd) [1] | cAMP Mean pM GLP-1R [2] | cAMP Primary assay EC50 GLP-1R n1 [2] | cAMP Primary assay EC50 GLP-1R n2 [2] | cAMP Primary assay EC50 Gluc-R [3] | cAMP Primary assay EC50 Gluc-R (2nd) [3] |
| --- | --- | --- | --- | --- | --- | --- | --- |
| H[Aib]EGS[αMeF]TSDV[αMeS]S[αMeF]LEGEAA[αMeK]E[αMeF]IA[αMeF]VK([PEG2′-PEG2′-γGlu-Stearoyl])[αMeK]GG-NH2 [SEQ ID NO 102] | 25 nM | 25.2 nM | 22 pM | 0.024 nM | 0.0206 nM | 25 nM | 25.2 nM |
| H[Aib]EGS[αMeF]TSDV[αMeS]S[αMeF]LEGEAA[αMeK]E[αMeF]IA[αMeF]K([PEG2′-PEG2′-γGlu-Stearoyl])V[αMeK]GG-NH2 [SEQ ID NO 103] | 25 nM | 25.2 nM | 5 pM | 0.0047 nM | 0.00456 nM | 25 nM | 25.2 nM |
| H[Aib]EGS[αMeF]TSDV[αMeS]S[αMeF]LEGEAA[αMeK]E[αMeF]IAK([PEG2′-PEG2′-γGlu-Stearoyl])VV[αMeK]GG-NH2 [SEQ ID NO 104] | 26 nM | 25.6 nM | 5 pM | 0.0059 nM | 0.00511 nM | 26 nM | 25.6 nM |
| H[Aib]EGS[αMeF]TSDV[αMeS]S[αMeF]LEGEAA[αMeK]E[αMeF]K([PEG2′-PEG2′-γGlu-Stearoyl])A[αMeF]VV[αMeK]GG-NH2 [SEQ ID NO 106] | 25 nM | 25.3 nM | 6140 pM | 6.5 nM | 5.79 nM | 25 nM | 25.3 nM |
| H[Aib]EGS[αMeF]TSDV[αMeS]S[αMeF]LEGK([PEG2′-PEG2′-γGlu-Stearoyl])AA[αMeK]E[αMeF]IA[αMeF]VV[αMeK]GG-NH2 [SEQ ID NO 112] | 25 nM | 25.4 nM | 6 pM | 0.0061 nM | 0.00507 nM | 25 nM | 25.4 nM |
| H[Aib]EGS[αMeF]TSDV[αMeS]S[αMeF]LEK([PEG2′-PEG2′-γGlu-Stearoyl])EAA[αMeK]E[αMeF]IA[αMeF]VV[αMeK]GG-NH2 [SEQ ID NO 113] | 25 nM | 24.9 nM | 18 pM | 0.018 nM | 0.0174 nM | 25 nM | 24.9 nM |
| H[Aib]EGS[αMeF]TSDV[αMeS]K([PEG2′-PEG2′-γGlu-Stearoyl])[αMeF]LEGEAA[αMeK]E[αMeF]IA[αMeF]VV[αMeK]GG-NH2 [SEQ ID NO 117] | 25 nM | 25.1 nM | 25 pM | 0.026 nM | 0.0244 nM | 25 nM | 25.1 nM |

More lines, now with the values ahead:

| cAMP Primary assay EC50 GIP-R [1] | cAMP Primary assay EC50 GIP-R (2nd) [1] | cAMP Mean pM GLP-1R [2] | cAMP Primary assay EC50 GLP-1R n1 [2] | cAMP Primary assay EC50 GLP-1R n2 [2] | cAMP Primary assay EC50 Gluc-R [3] | cAMP Primary assay EC50 Gluc-R (2nd) [3] | Binder |
| --- | --- | --- | --- | --- | --- | --- | --- |
| 25 nM | 25 nM | 18 pM | 0.021 nM | 0.0148 nM | 25 nM | 25 nM | H[Aib]EGS[αMeF]TSDV[αMeS]S[αMeF]LEGEAA[αMeK]E[αMeF]IK([PEG2′-PEG2′-γGlu-Stearoyl])[αMeF]VV[αMeK]GG-NH2 [SEQ ID NO 105] |
| 25 nM | 25.4 nM | 4 pM | 0.0038 nM | 0.00346 nM | 25 nM | 25.4 nM | H[Aib]EGS[αMeF]TSDV[αMeS]S[αMeF]LEGEAA[αMeK]K([PEG2′-PEG2′-γGlu-Stearoyl])[αMeF]IA[αMeF]VV[αMeK]GG-NH2 [SEQ ID NO 108] |
| 26 nM | 25.6 nM | 34 pM | 0.034 nM | 0.0346 nM | 26 nM | 25.6 nM | H[Aib]EGS[αMeF]TSDV[αMeS]S[αMeF]LEGEAAK([PEG2′-PEG2′-γGlu-Palmitoyl])E[αMeF]IA[αMeF]VV[αMeK]GG-NH2 [SEQ ID NO 109] |
| 25 nM | 25 nM | 62 pM | 0.06 nM | 0.0639 nM | 25 nM | 25 nM | H[Aib]EGS[αMeF]TSDV[αMeS]S[αMeF]LEGEAK([PEG2′-PEG2′-γGlu-Stearoyl])[αMeK]E[αMeF]IA[αMeF]VV[αMeK]GG-NH2 [SEQ ID NO 110] |
| 25 nM | 25 nM | 17 pM | 0.018 nM | 0.0164 nM | 25 nM | 25 nM | H[Aib]EGS[αMeF]TSDV[αMeS]S[αMeF]LEGEK([PEG2′-PEG2′-γGlu-Stearoyl])A[αMeK]E[αMeF]IA[αMeF]VV[αMeK]GG-NH2 [SEQ ID NO 111] |
| 25 nM | 25.4 nM | 503 pM | 0.55 nM | 0.458 nM | 25 nM | 25.4 nM | H[Aib]EGS[αMeF]TSDV[αMeS]S[αMeF]LK([PEG2′-PEG2′-γGlu-Stearoyl])GEAA[αMeK]E[αMeF]IA[αMeF]VV[αMeK]GG-NH2 [SEQ ID NO 114] |
| 25 nM | 25.3 nM | 6 pM | 0.006 nM | 0.00539 nM | 25 nM | 25.3 nM | H[Aib]EGS[αMeF]TSDV[αMeS]S[αMeF]K([PEG2′-PEG2′-γGlu-Stearoyl])EGEAA[αMeK]E[αMeF]IA[αMeF]VV[αMeK]GG-NH2 [SEQ ID NO 115] |
| 26 nM | 25.6 nM | 9 pM | 0.0093 nM | 0.00912 nM | 26 nM | 25.6 nM | H[Aib]EGS[αMeF]TSDV[αMeS]SK([PEG2′-PEG2′-γGlu-Stearoyl])LEGEAA[αMeK]E[αMeF]IA[αMeF]VV[αMeK]GG-NH2 [SEQ ID NO 116] |
